Source: the nanobody polyreactivity screen of Harvey et al. (2022)

Experiment: yeast display, Sf9 membrane polyspecificity reagent, FACS + sequencing; frameworks hold sequencing errors
Method in brief: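 A nanobody's polyreactivity label depends on the gate it was sorted from. Yeast display cells were stained with 10% biotinylated, detergent-solubilized Sf9 membrane reagent for 1 hour at 4 °C, enriched on streptavidin microbeads and sorted by FACS. The low and high (top ~1%) gates were set on anti-HA fluorescence for expression and streptavidin fluorescence for reagent binding.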
With “QVQLVESGGGLVQAGGSLRLSCAASGFIFARYAMGWYRQAPGKVRELVARITTGDSTYYADSVKGRFTISRDNAKNTVYLQMNSLKPEDTAVYYCAADDNVSVVGLYYWGQGTQVTVSS” the “polyreactivity (PSR sort gate)” value was “low polyreactivity”. For “QVQLVESGGGLVQAGGSLRLSCAASGFIFASNAMGWYRQAPGKERELVAGITKSGGSTYYADSVKGRFTISRDNAKNTVYLQMNSLKPEDTAVYYCAKVSYARAKSSGFYYWGQGTQVTVSS”, the “polyreactivity (PSR sort gate)” value was “high polyreactivity”. For “QVQLVESGGGLVQAGGSLRLSCAASGFIFASNAMGWYTQAPGKERELVASITIGDSTYYADSVKGRFTISRDNAKNTVYLQMNSLKPEDTAVYYCAAVKTVDVGYDYWGQGTQVTVSS”, the “polyreactivity (PSR sort gate)” value was “low polyreactivity”. For “QVQLVESGGGLVQAGGSLRLSCAASGFIFASYAMGWYRQAPGKERELVAAISSSGGRTYYADSVKGRFTISRDNAKNTVYLQMNSLKPEDTAVYYCAADWRVTYDYWGQGTQVTVSS”, the “polyreactivity (PSR sort gate)” value was “high polyreactivity”. For “QVQLVESGGGLVQAGGSLRLSCAASGFIFASYAMGWYRQAPGKERELVATITRNGGITYYADSVKGRFTISRDNAKNTVYLQMNSLKPEDTAVYYCAKRRSGKSNVSFYPYAYDYWGQGTQVTVSS”, the “polyreactivity (PSR sort gate)” value was “low polyreactivity”. In the case of “QVQLVESGGGLVQAGGSLRLSCAASGFIFATNTMGWYRQAPGKERELVAASSTYYADSVKGRFTISRDNAKNTVYLQMNSLKPEDTAVYYCNADRDSYIGFDLSESDYWGQGTQVTVSS”, the “polyreactivity (PSR sort gate)” value is reported as “low polyreactivity”. In the case of “QVQLVESGGGLVQAGGSLRLSCAASGFIFATYAMGWYRQAPGKERELVASINWSGGRTYYADSVKGRFTISRDNAKNTVYFQMNSLKPEDTEVYYCAARISTRYEYWGHGTQVTVSS”, the “polyreactivity (PSR sort gate)” value is reported as “high polyreactivity”. For “QVQLVESGGGLVQAGGSLRLSCAASGFIFATYNMGWYRQAPGKERELVAAITWRGGSTYYADSVKGRFTISRDNAKITVYLQMNSLKPEDTAVYYCAAQDVYSYRYVEDDYWGQGTQVTVSS”, the “polyreactivity (PSR sort gate)” value was “low polyreactivity”. In the case of “QVQLVESGGGLVQAGGSLRLSCAASGFIFAWYAMGWYRQAPGKERELVAAITSSGTSTYYADSVKGRFTISRDNAKNTVYLQMNSLTPEDTAVYYCAAVTKRYLAYDYWGQGTQVTVSS”, the “polyreactivity (PSR sort gate)” value is reported as “high polyreactivity”. In the case of “QVQLVESGGGLVQAGGSLRLSCAASGFIFAYYAMGWYRQAPGKERELVAAISSRGGTYYADSVKGRFTISRDNAKNTVYFQMNSLKPEDTAVYYCAAASYTWVSRGYEYWGQGTQVTVSS”, the “polyreactivity (PSR sort gate)” value is reported as “high polyreactivity”. In the case of “QVQLVESGGGLVQAGGSLRLSCAASGFIFDDNAMGWYRQAPGKERELVAAITSGGGTTYYADSVKGRFTISRDTAKNTVYLQMNSLKPEDTAVYYCNAVPSQHDEFDYWGQGTQVTVSS”, the “polyreactivity (PSR sort gate)” value is reported as “low polyreactivity”. In the case of “QVQLVESGGGLVQAGGSLRLSCAASGFIFDKNAMGWYRQAPGKERELVATITSGGSTYYADSVKGRFTISRDNAKNTVYFQMNSLKPDETAVYYCAALDYGYRWYRYYYWGQGTQVTVSS”, the “polyreactivity (PSR sort gate)” value is reported as “high polyreactivity”. In the case of “QVQLVESGGGLVQAGGSLRLSCAASGFIFDLYAMGWYRQAPGKERELVAVISYDGGSTYYADSVKGRFTISRDNAKNTVYLQMNSLNPEDTAVYYCNTYAGLVSPSDLYDYWGQGTQVTVSS”, the “polyreactivity (PSR sort gate)” value is reported as “low polyreactivity”. In the case of “QVQLVESGGGLVQAGGSLRLSCAASGFIFDQNAMGCYRQAPGKEREFVAAISSRGSRTYYADSVKGRFTISRDKAKNTVYLQMNSLKPEDTAVYDCAAGYWARLYDYDYWGQGTQVTVSS”, the “polyreactivity (PSR sort gate)” value is reported as “high polyreactivity”. In the case of “QVQLVESGGGLVQAGGSLRLSCAASGFIFDRYAMGWYRQAPGKERELVAAIDTASSTNYADSVKGRFTISRDNAKNTVDLQMNSLKPEDTAVYYCNASGYYYVIYWKVSNYNYWGQGTQVTVSS”, the “polyreactivity (PSR sort gate)” value is reported as “low polyreactivity”. For “QVQLVESGGGLVQAGGSLRLSCAASGFIFDRYDMGWYRQAPGKERELVAAISYSGGSTYYADSVKGRFSISRDNAKNTVYFQMNSLKPEDTAVYYCATRVGYFYYEYSYDYWGQGTQVTVSS”, the “polyreactivity (PSR sort gate)” value was “low polyreactivity”. In the case of “QVQLVESGGGLVQAGGSLRLSCAASGFIFDSYAMGWNRQAPGKERELVAAIDKRGGRTYYADSVKGRFTISRDNGKNTVYLQMNSLKPEDTAVYYCAADDYTGYGYWGQGTQVTVSS”, the “polyreactivity (PSR sort gate)” value is reported as “high polyreactivity”. In the case of “QVQLVESGGGLVQAGGSLRLSCAASGFIFDSYVMGWYRQAPGKEREMVAAISSGGASTYYADSVKGRFTISRDNAKNTVYLQMNSLKPEDTAVYYCAAEYLYQPWGVDYDYWGQGSQVTVSS”, the “polyreactivity (PSR sort gate)” value is reported as “high polyreactivity”. With “QVQLVESGGGLVQAGGSLRLSCAASGFIFDTYALGWYRQAPGKERELVAVMSSSGGRTYYADSVKGRFTISRDNAKNTVYLQMNSLKPEDNAVYYCAARWYSGYGRFDYWGQGTQVTVSS” the “polyreactivity (PSR sort gate)” value was “high polyreactivity”. For “QVQLVESGGGLVQAGGSLRLSCAASGFIFDTYAMGWYRQAPGKERDLVAVISSGGSTYYADSVKGRVTISRDNAKNTVYLQMNSLKPEDTAVYYCAADSGYLGIYGDDYSWGQGTQVSVSS”, the “polyreactivity (PSR sort gate)” value was “low polyreactivity”. For “QVQLVESGGGLVQAGGSLRLSCAASGFIFDWYAMGWYRQAPGKERELVAAISYSGGSTYYADSVKGRFTISRDNAKNTVYLQMNSLKPEDTAVYYCNADIWYGDMDYWGQGTQVTVSS”, the “polyreactivity (PSR sort gate)” value was “high polyreactivity”. For “QVQLVESGGGLVQAGGSLRLSCAASGFIFDYYAMGWYRQAPGKERELVAAITSRGGSTYYADSVKGRFTISRDNAKNTVYLQMNSLKPEDTAVYYCNKDPHYYATGRFYYWGQGTQVTVSS”, the “polyreactivity (PSR sort gate)” value was “high polyreactivity”. In the case of “QVQLVESGGGLVQAGGSLRLSCAASGFIFDYYAMGWYRQAPGKERELVASISGDDGRTYYADSVKGRFTISRDNAKNTVYLQMNSLKPEDTAVYYCNAEWGVLNYDYWGQGTQVTVSS”, the “polyreactivity (PSR sort gate)” value is reported as “low polyreactivity”. For “QVQLVESGGGLVQAGGSLRLSCAASGFIFEHYAMGWYRQAPVKERELVARISWRGGSTYYADSVKGRFTISRDNAKNTVYLQMNRLKPEDTAVYYCNALEVVYFGYYPSDYWGQGTQVTVSS”, the “polyreactivity (PSR sort gate)” value was “low polyreactivity”. With “QVQLVESGGGLVQAGGSLRLSCAASGFIFETYAMGWYRQAPGKERELVAAISRGASTYYADSVKGRFTISRDNAKNTVSLQMNSLKQEDTGVYYCAAKRLSWHRYGYWGQGTQVTVSS” the “polyreactivity (PSR sort gate)” value was “low polyreactivity”. For “QVQLVESGGGLVQAGGSLRLSCAASGFIFEWYTMGWYRQAPGKERELVARISSDGSTTYADSVKGRFTISRDNAKNTVYLQMNSLKPEDTAVYYCAADVTYPGLKYIFDYWGQGTQVTVSS”, the “polyreactivity (PSR sort gate)” value was “low polyreactivity”. For “QVQLVESGGGLVQAGGSLRLSCAASGFIFEYNTMGWYIQAPGKERELVAAISFIGGRTYYADSVKRRFTLSRDNAKNTVYLQMNSLKPVDTAVNYCNKRYGGYYSGARRVLYYYWGQGTQVTVSS”, the “polyreactivity (PSR sort gate)” value was “high polyreactivity”. With “QVQLVESGGGLVQAGGSLRLSCAASGFIFFINDMGWYRQAPGKERELVAAISWSGGSTYYADSVKGRFTISRDNAKNTVYLQMNSLKPEDTAVYYCNTDVPTAQYDYWGQGTQVTVSS” the “polyreactivity (PSR sort gate)” value was “low polyreactivity”. In the case of “QVQLVESGGGLVQAGGSLRLSCAASGFIFFKNAMGWYRQAPGKERELVDVISTSGGRTYYADSVKGRFTISRDYAKNTVYLQMNSLKPEDTAVYYCAAGDQYKTRRNGYGYWGQGTQVTVSS”, the “polyreactivity (PSR sort gate)” value is reported as “high polyreactivity”. In the case of “QVQLVESGGGLVQAGGSLRLSCAASGFIFFRYAMGWYRQAPGKERELVAAISTRTGITYYSDSVKGRFTISRDNAKNNVYLQMNRLKPEDTAVYDRNVLRSHSLYPFWKYDYWGQGTQVTVSS”, the “polyreactivity (PSR sort gate)” value is reported as “high polyreactivity”. With “QVQLVESGGGLVQAGGSLRLSCAASGFIFFSNAMGWYRQAPGKEMELVAAISRIGVSTYYADSLKGRFTISRDNAKNTVYLQMKSLKPEYTAVYYCNKSNPDYDGLAIHAFDYWGQGTQVTVSS” the “polyreactivity (PSR sort gate)” value was “low polyreactivity”. In the case of “QVQLVESGGGLVQAGGSLRLSCAASGFIFFTYAMGWYRQAPGKERELVAAISSRGGSTYYADSVQGRFTISRDNAKKTVYLQMNSLKPEDTAVYYCAAQAYGGYPYGYWGQGTQVTVSS”, the “polyreactivity (PSR sort gate)” value is reported as “high polyreactivity”. With “QVQLVESGGGLVQAGGSLRLSCAASGFIFFYYAMGWYRQAPGKERELVAAISASGGSTYYADSVKGRFTMSRDNAKNTVYLQMNSLKPEDTAVYYCATDPISRARLYGQRDYWGQGTQVTVSS” the “polyreactivity (PSR sort gate)” value was “high polyreactivity”. With “QVQLVESGGGLVQAGGSLRLSCAASGFIFFYYAMGWYRQAPGKERELVASINWSGGRTYYADSVKGRFTISRDNAKNTVYLQMNSLKPEDTAVYYCAADRRFSTYDYWGQGTQVTVSS” the “polyreactivity (PSR sort gate)” value was “high polyreactivity”. For “QVQLVESGGGLVQAGGSLRLSCAASGFIFFYYAMGWYRQAPGKERELVAVIDRSGGTTYYADSVKGRFTISRDNAKNTVYFQMNILKPEDTAVYYCNADDFTYPSGWGFIYDYWGQGTQVTVSS”, the “polyreactivity (PSR sort gate)” value was “low polyreactivity”. For “QVQLVESGGGLVQAGGSLRLSCAASGFIFGDNAMGWYRQAPGKERELVAAINSGSRTSYADSVKGRFTISRDNAKNTVFLQMNSLKPEDTAVYYCAAESVSSGDNASRYDFWGQGTQVTVSS”, the “polyreactivity (PSR sort gate)” value was “low polyreactivity”. For “QVQLVESGGGLVQAGGSLRLSCAASGFIFGFYAMGWYRQAPGKERELVADITSSGGSTYYADSVKGRFTISRDNAKYSVYLQMNSLKPEDTAVYYCAADGWWHNFYPGTGLDYWGQGTQVTVSS”, the “polyreactivity (PSR sort gate)” value was “low polyreactivity”. In the case of “QVQLVESGGGLVQAGGSLRLSCAASGFIFGGNAMGWYRQAPGKERELVAAISSGGRTYYADSVKGRFTISRDNAKNTVYLQMNSLKPEDTAVYYCNAYSYHRGRDYWGQGTQVTVSS”, the “polyreactivity (PSR sort gate)” value is reported as “low polyreactivity”. With “QVQLVESGGGLVQAGGSLRLSCAASGFIFGGNAMGWYRQAPGKERELVAAITARSGSTYYADSVKGRFTISRDNAKNTVYLQMNSLKPEDTAVYYCATPVYRSTYEYDYWGQGTQVTVSS” the “polyreactivity (PSR sort gate)” value was “low polyreactivity”. With “QVQLVESGGGLVQAGGSLRLSCAASGFIFGGYAMGWSRQAPGKERELVAAISRSGGSTYYADSVKGRFTISRDNAKNTVYLQMNSLKPEDTAVYYCNAVPRRQGFNYWGQGTQVTVSS” the “polyreactivity (PSR sort gate)” value was “high polyreactivity”. In the case of “QVQLVESGGGLVQAGGSLRLSCAASGFIFGGYAMGWYIQGHGKERELVAAISSSGGSTYYADSVKGRFTISRDNAKNSVYLQMNSLKPEDTAVYYCAKVGWSRRYYYWGQGTKVTVSS”, the “polyreactivity (PSR sort gate)” value is reported as “high polyreactivity”.
